Source: patent US20200206371A1 (WAYNE STATE UNIVERSITY, published 2020)

T1: murine IFN-γ (recombinant IFN-γ) (mouse, UniProt P01580 23-155)
T1 construct: AN-18 is described as a rat mAb to murine IFN-γ; also called rIFN-γ; interferon gamma
T1 sequence (looked up): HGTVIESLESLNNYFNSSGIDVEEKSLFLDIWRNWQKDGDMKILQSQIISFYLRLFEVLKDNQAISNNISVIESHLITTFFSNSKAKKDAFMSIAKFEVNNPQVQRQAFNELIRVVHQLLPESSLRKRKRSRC


What was measured:
[1] = target: T1, murine IFN-γ (recombinant IFN-γ); assay: Octet (BLI); format not stated; diabody (scFv homodimer), not full-length antibody
[2] = target: T1, murine IFN-γ (recombinant IFN-γ); assay: Octet (BLI); format not stated; full-length AN18, not diabody

Row | Molecule | Kd [1] [nM] | Kd [2] [nM]
1 | anti-IFN-γ diabody (homodimer of the single chain Fv derived from anti-IFNγ clone AN18, made in CHO cells) | 37.9 | –
2 | AN-18 (anti-IFNγ, rat IgG1, kappa, eBioscience), full-length (antibody, V domains shown, Bought rat IgG1, kappa monoclonal antibody; also called full-length AN18; anti-mouse IFN-γ mAb clone AN-18) VH: QVQLKESGPGLVQPSQTLSLTCTVSGFSLDSYNVHWVRQPPGKGLEWMGRMKYNGDTSYNSALKSRLRISRDTSKNQVFLKMNSLQTDDTGTYYCTRDWHYGYPSPYFEFWGQGVMVTVSS VL: DVQMTQSPSYLAASPGESVSISCKASKNINTYLAWYQEKPGKTNKLLIYSGSTLQSGTPSRFSGSGSGTDFTLTIRSLEPEDFAVYYCQQHNEYPLTFGSGTKLEVKR | – | 28.2
